Assay results taken from patent publication US20170037124A1 (Regeneron, published 2017).

Key:
[1] = target: T1, human ANGPTL8 peptide (hANGPTL8 peptide, SEQ ID NO: 337) (human); experiment: SPR, captured mAb, 500 nM peptide, 25C
T1 construct: also called N-terminal region ANGPTL8 peptide
T1 peptide: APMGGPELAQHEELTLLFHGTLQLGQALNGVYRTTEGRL
Description: (§1) The assay utilized a format where ANGPTL8 antibodies were captured on the sensor surface and peptides were injected over the antibody surface. Peptides from the N-terminal coiled-coil region of human ANGPTL3 (hANGPTL3 peptide, SEQ ID NO: 338) and human ANGPTL4 (hANGPTL4 peptide, SEQ ID NO: 339) were also included as controls. Also included was a control antibody (H4H268P from US2011/0159015A1) that binds to the ANGPTL4 peptide and a negative isotype control antibody. All binding studies were performed in 10 mM HEPES pH 7.4, 150 mM NaCl, 3 mM EDTA, and 0.05% v/v Surfactant Tween-20 (HBS-ET running buffer) at 25° C. The HCA sensor surface was derivatized via amine coupling to a monoclonal mouse anti-human Fc antibody (GE, # BR-1008-39), and to this surface was captured approximately 1000 RU of each ANGPTL8 antibody or control antibody. Peptide stock solutions were diluted in HBS-ET running buffer to 500 nM and injected over the antibody-captured surfaces for 4 minutes at a flow rate of 30 μL/minute followed by the dissociation of bound peptide in HBS-ET running buffer for 10 minutes.
(§2) Dissociative half-lives (t½) were calculated from kd as: […]

[2] = target: T2, peptide from the N-terminal coiled-coil region of human ANGPTL3 (hANGPTL3 peptide, SEQ ID NO: 338) (human); experiment: SPR, captured mAb, 500 nM peptide, 25C
T2 construct: also called hANGPTL3 shift peptide
T2 peptide: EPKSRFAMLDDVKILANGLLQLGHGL
Description: as §1, §2

[3] = target: T3, peptide from the N-terminal coiled-coil region of human ANGPTL4 (hANGPTL4 peptide, SEQ ID NO: 339) (human); experiment: SPR, captured mAb, 500 nM peptide, 25C
T3 peptide: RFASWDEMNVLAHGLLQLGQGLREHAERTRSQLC
Description: as §1, §2

[4] = target: T4, anti-mFc (AMC) Octet biosensor, blank; experiment: BLI Octet, blank AMC sensor, 100 nM mAb, 25C
T4 construct: Sensor without captured protein, used as blank; also called Blank AMC Sensor
Description: (§3) Binding of ANGPTL8 antibodies to human and monkey ANGPTL8 proteins was investigated using Bio-layer Interferometry with an Octet HTX biosensor platform (ForteBio, A Division of Pall Life Sciences). All experiments were performed at 25° C. in 10 mM HEPES pH 7.4, 150 mM NaCl, 0.05% v/v Surfactant Tween-20, and 1 mg/ml BSA with the reaction multiwell plate agitated at 1000 rpm. Approximately 1.6 nm of human ANGPTL8 produced with a C-terminal mouse IgG2a Fc tag (hANGPTL8-mFc; SEQ ID NO: 340) or cynomolgus monkey ANGPTL8 produced with a C-terminal mouse IgG2a Fc tag (MfANGPTL8-mFc; SEQ ID NO: 341) was captured onto anti-mFc (AMC) Octet biosensors by submerging the sensors into wells containing 10 μg/mL of each protein for 4 minutes. Under the same conditions a negative control protein with the same mFc tag (hLDLR-mFc) was also coupled to the AMC sensor. All four sensors, […] and one blank, were then submerged into wells containing 100 nM of different ANGPTL8 monoclonal antibodies or an isotype control for 4 minutes.

[5] = target: T5, human ANGPTL8 expressed with C-terminal mouse IgG2a Fc tag (hANGPTL8-mFc; SEQ ID NO: 340) (human); experiment: BLI Octet, captured antigen, 100 nM mAb, 25C
T5 construct: also called Angiopoietin-like protein 8
T5 chain: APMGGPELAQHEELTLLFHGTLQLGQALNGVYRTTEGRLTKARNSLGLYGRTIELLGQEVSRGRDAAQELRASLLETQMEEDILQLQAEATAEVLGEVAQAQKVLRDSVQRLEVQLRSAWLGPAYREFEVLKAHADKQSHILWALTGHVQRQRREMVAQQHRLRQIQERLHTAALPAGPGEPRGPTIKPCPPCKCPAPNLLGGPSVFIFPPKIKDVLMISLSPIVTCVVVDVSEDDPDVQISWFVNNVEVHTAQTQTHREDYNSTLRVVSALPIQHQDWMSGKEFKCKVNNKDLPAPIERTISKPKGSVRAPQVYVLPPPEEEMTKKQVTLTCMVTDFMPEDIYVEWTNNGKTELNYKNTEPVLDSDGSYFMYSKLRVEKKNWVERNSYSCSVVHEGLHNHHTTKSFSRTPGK
Description: as §3

[6] = target: T6, monkey ANGPTL8 expressed with C-terminal mouse IgG2a Fc tag (MfANGPTL8-mFc; SEQ ID NO: 341) (cynomolgus monkey); experiment: BLI Octet, captured antigen, 100 nM mAb, 25C
T6 construct: also called cynomolgus monkey ANGPTL8
T6 chain: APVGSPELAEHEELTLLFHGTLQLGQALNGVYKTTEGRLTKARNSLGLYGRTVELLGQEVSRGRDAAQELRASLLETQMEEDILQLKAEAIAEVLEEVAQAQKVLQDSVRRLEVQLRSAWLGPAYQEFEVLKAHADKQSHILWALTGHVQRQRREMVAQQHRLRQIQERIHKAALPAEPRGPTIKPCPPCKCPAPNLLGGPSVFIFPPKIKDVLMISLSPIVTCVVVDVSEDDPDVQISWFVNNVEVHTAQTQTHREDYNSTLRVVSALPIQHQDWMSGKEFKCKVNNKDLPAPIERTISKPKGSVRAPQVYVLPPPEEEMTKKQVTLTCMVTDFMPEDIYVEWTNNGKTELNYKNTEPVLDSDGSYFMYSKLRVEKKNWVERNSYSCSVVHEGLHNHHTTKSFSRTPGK
Description: as §3

[7] = target: T7, negative control protein with the same mFc tag (hLDLR-mFc) (human; mouse, UniProt P01130 22-788, limits assumed); experiment: BLI Octet, captured antigen, 100 nM mAb, 25C
T7 construct: also called Irrelevant control; not shown: mouse IgG2a Fc tag (same mFc tag as hANGPTL8-mFc)
T7 sequence (P01130 22-788 limits assumed): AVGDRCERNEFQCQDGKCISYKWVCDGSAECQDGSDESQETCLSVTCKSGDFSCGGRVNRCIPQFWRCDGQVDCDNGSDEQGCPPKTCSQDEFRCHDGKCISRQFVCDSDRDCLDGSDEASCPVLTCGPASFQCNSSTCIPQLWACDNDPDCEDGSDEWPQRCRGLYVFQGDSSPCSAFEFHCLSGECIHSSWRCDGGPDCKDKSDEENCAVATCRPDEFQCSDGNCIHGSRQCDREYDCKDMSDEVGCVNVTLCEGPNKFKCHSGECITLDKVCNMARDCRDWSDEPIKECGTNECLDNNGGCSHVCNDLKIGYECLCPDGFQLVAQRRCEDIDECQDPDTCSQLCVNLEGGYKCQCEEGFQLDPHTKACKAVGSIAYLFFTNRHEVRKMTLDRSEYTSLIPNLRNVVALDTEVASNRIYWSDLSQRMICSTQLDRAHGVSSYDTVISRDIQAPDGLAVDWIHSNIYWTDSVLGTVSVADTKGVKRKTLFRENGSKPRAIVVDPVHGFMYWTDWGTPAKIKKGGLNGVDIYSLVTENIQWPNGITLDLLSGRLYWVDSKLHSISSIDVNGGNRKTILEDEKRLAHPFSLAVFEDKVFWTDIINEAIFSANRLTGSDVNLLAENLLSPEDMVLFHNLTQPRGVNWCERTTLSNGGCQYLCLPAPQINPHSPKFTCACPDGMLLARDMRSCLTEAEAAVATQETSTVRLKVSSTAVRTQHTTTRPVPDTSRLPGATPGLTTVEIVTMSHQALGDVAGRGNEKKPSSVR
Description: as §3

B1: H4H15350P2 (antibody, human IgG4, V domains shown)
VH: EVQLVESGGGLVQPGGSLRLSCAASGFTFSSFRMTWVRQAPGKGLEWVANIKQDGSEKYYVDSVKGRFTISRDNAKNSLYLQMNSLRAEDTAVYYCARGGGIAAYWGQGTLVTVSS
VL: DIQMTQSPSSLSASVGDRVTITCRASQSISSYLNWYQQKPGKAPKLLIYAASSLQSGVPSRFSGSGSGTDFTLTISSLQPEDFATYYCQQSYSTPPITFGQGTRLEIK
notes: H4H prefix: human IgG4 Fc
B1 was tested, and the “500 nM hANGPTL8 peptide Bound (RU)” value [1] was 0 RU, the binding result [1] was “no binding (tested: <9 RU at 500 nM peptide)” and the “500 nM hANGPTL3 peptide Bound (RU)” value [2] was 0 RU. The binding result [2] was “no binding (tested: <9 RU at 500 nM peptide)”, the “500 nM hAngPTL4 peptide Bound (RU)” value [3] was 0 RU and the binding result [3] was “no binding (tested: <9 RU at 500 nM peptide)”. For the same binder, the “mAb Binding Response (nm)” value [4] was -0.01 nm, the “mAb Binding Response (nm)” value [5] was 0.17 nm and the “mAb Binding Response (nm)” value [6] was 0.2 nm. For the same binder, the “mAb Binding Response (nm)” value [7] was 0 nm.

B2: H4H15318P (antibody, human IgG4, V domains shown)
VH: QVQLVESGGGVVQPGRSLRLSCTASGFTFGNFGIHWVRQAPGKGLEWVAVISYDGTDKFYADPVKGRFIISRDNSMNILYLQMNSLRAEDTAVYYCAKDGEMELRGYYYYYGMDVWGQGTTVTVSS
VL: DIQMTQSPSSVSASVGDRVTITCRASQGINTWLAWYQQKPGTAPKLLIFAASSLESGVPSRFSGSGFGTDFTLTISSLQSEDLATYFCQQVHSPPYTFGQGTKLEIK
notes: H4H prefix: human IgG4 Fc
B2 was tested, and the “500 nM hANGPTL8 peptide Bound (RU)” value [1] was 0 RU, the binding result [1] was “no binding (tested: <9 RU at 500 nM peptide)” and the “500 nM hANGPTL3 peptide Bound (RU)” value [2] was 0 RU. The binding result [2] was “no binding (tested: <9 RU at 500 nM peptide)”, the “500 nM hAngPTL4 peptide Bound (RU)” value [3] was 0 RU and the binding result [3] was “no binding (tested: <9 RU at 500 nM peptide)”. For the same binder, the “mAb Binding Response (nm)” value [4] was 0.01 nm, the “mAb Binding Response (nm)” value [5] was 0.19 nm and the “mAb Binding Response (nm)” value [6] was 0.2 nm. The “mAb Binding Response (nm)” value [7] was 0.01 nm.

B3: H4H15319P (antibody, human IgG4, V domains shown)
VH: EVQLVESGGGVVRPGGSLRLSCAASGFTVDDYDMSWVRQTPGKGLEWISGINWNGGNTGYADSVKGRFIISRDSAKNSLFLQMNSLRAEDTALYHCWGAIGAFDIWGQGTMVTVSS
VL: DIVMTQSPLSSPVTLGQPASISCRSSQSLVHSDGGTYLSWLQQRPGQPPRLLIYKIFNRFSGVPDRFSGSGAGTDFTLRISRVEAEDVGVYYCMQTTQFPLTFGGGTKVEIK
notes: H4H prefix: human IgG4 Fc
For B3, the “500 nM hANGPTL8 peptide Bound (RU)” value [1] was 0 RU, the binding result [1] was “no binding (tested: <9 RU at 500 nM peptide)” and the “500 nM hANGPTL3 peptide Bound (RU)” value [2] was 0 RU. For the same binder, the binding result [2] was “no binding (tested: <9 RU at 500 nM peptide)”, the “500 nM hAngPTL4 peptide Bound (RU)” value [3] was 0 RU and the binding result [3] was “no binding (tested: <9 RU at 500 nM peptide)”. For the same binder, the “mAb Binding Response (nm)” value [4] was 0 nm, the “mAb Binding Response (nm)” value [5] was 0.22 nm and the “mAb Binding Response (nm)” value [6] was 0.26 nm. For the same binder, the “mAb Binding Response (nm)” value [7] was -0.01 nm.

B4: H4H15345P (antibody, human IgG4, V domains shown)
VH: EVQLVESGGGLVQPGGSLRLSCAASGFTFSTYAMSWVRQAPGKGLEWVSVISGSFISTYYADSVKGRFTISRDNSKNTLYLQMTSLRAEDTAVYYCAKNSPFDYWGQGTLVTVSS
VL: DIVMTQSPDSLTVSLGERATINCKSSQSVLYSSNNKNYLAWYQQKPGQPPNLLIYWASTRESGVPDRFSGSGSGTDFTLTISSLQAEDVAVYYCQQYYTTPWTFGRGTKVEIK
notes: H4H prefix: human IgG4 Fc
With B4 the “500 nM hANGPTL8 peptide Bound (RU)” value [1] was 37 RU, the koff [1] was 2.03e-05 s⁻¹ and the t½ [1] was 9.5 h. The “500 nM hANGPTL3 peptide Bound (RU)” value [2] was 0 RU, the binding result [2] was “no binding (tested: <9 RU at 500 nM peptide)” and the “500 nM hAngPTL4 peptide Bound (RU)” value [3] was 0 RU. For the same binder, the binding result [3] was “no binding (tested: <9 RU at 500 nM peptide)”, the “mAb Binding Response (nm)” value [4] was 0.01 nm and the “mAb Binding Response (nm)” value [5] was 0.25 nm. The “mAb Binding Response (nm)” value [6] was 0.31 nm and the “mAb Binding Response (nm)” value [7] was 0 nm.

B5: H4H15323P (antibody, human IgG4, V domains shown)
VH: EVQLVESGGGLVQPGGSLRLSCAASGFTFSSYAMTWVRQAPGKGLEWVSAISGSGGSTYYTDSVKGRFTLSRDNSKNTLYLQMNSLRAEDTAVYYCAKSDYSNTIYWYYGMDVWGQGTTVTVSS
VL: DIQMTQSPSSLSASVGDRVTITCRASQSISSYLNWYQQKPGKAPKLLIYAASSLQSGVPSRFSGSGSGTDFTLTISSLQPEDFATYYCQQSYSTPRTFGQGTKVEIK
notes: H4H prefix: human IgG4 Fc
In the case of B5, the “500 nM hANGPTL8 peptide Bound (RU)” value [1] is reported as 0 RU, the binding result [1] is reported as “no binding (tested: <9 RU at 500 nM peptide)” and the “500 nM hANGPTL3 peptide Bound (RU)” value [2] is reported as 0 RU. The binding result [2] was “no binding (tested: <9 RU at 500 nM peptide)”, the “500 nM hAngPTL4 peptide Bound (RU)” value [3] was 0 RU and the binding result [3] was “no binding (tested: <9 RU at 500 nM peptide)”. The “mAb Binding Response (nm)” value [4] was 0 nm, the “mAb Binding Response (nm)” value [5] was 0.18 nm and the “mAb Binding Response (nm)” value [6] was 0.15 nm. For the same binder, the “mAb Binding Response (nm)” value [7] was 0 nm.
